# Laboratory results as given in US20100285022A1.
# Biological target: F protein on live RSV virus (strain not stated) (respiratory syncytial virus)
# Assay: cell-based or functional assay
substance,measurement,value
Synagis® (palivizumab) (antibody),"IC50, plaque neutralization assay on HEp2 cells with rabbit complement",0.3 µg/mL
same,affinity corresponding to the IC50 of the plaque neutralization assay,2 nM
